The target in assay [1] is T1, recombinant human EFNA3 His fusion protein (human, UniProt P52797 23-214).
T1 construct: also called ephrinA3-His; immobilized human EFNA3; not shown: His tag
T1 sequence: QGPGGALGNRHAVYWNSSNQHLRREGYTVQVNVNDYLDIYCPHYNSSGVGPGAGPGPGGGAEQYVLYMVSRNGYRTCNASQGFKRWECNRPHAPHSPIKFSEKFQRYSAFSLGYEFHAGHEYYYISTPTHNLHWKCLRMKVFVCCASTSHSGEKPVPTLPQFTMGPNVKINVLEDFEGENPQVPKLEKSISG
Kind of assay: BLI (ForteBio RED), antigen concentration series; column Affinity (nM). Here is the method:
Various methods were used to analyze the immunochemical characteristics of selected EFNA1 and EFNA3 modulators generated as set forth above. Specifically, a number of these antibodies were characterized as to affinity, kinetics, binning, and cross reactivity with regard to cynomolgus and mouse homologs (e.g., by ForteBio). The reactivity of the modulators was also measured by Western blot using reduced and non-reduced samples to provide some indication as to whether the epitopes were linear or not. In addition, the antibodies were tested for their ability to neutralize (e.g., block receptor ligand interaction as per Example 11), and were benchmarked for their relative EC₅₀ of killing by in vitro cytotoxicity assay (e.g., as per Examples 12-14). The results of this characterization are set forth in tabular form in FIG. 8 for modulators that primarily react with EFNA1 and in FIG. 9 for modulators that primarily react with EFNA3. Affinities and kinetic constants kₒₙ and koff of the selected modulators were measured using bio-layer interferometry analysis on a ForteBio RED (ForteBio, Inc.) with a standard antigen concentration series.

Another assay deals with T2, mouse EFNA3 (mouse, UniProt O08545).
T2 construct: the sheet prints only 'Ms XR'; also called mouse ephrin-A3 homolog
T2 sequence (ligand, looked up): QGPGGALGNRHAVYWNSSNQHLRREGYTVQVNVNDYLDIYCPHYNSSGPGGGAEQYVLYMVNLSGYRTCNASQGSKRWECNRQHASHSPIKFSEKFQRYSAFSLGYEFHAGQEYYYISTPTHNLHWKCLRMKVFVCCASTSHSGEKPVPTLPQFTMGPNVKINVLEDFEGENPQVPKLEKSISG
Kind of assay: cross-reactivity with the mouse homolog (e.g. by ForteBio).

Assay [2] addresses recombinant human EFNA1 His fusion protein (human) (UniProt P20827). Kind of assay: BLI (ForteBio RED), antigen concentration series; column Affinity (nM). Background: In BLI a coated tip is dipped into the sample, and binding shifts an interference pattern.

Results on four molecules are retold here after patent publication US20140302034A1 (STEM CENTRX, published 2014).

Chain of recombinant human EFNA1 His fusion protein (human) (P20827 19-182 limits assumed): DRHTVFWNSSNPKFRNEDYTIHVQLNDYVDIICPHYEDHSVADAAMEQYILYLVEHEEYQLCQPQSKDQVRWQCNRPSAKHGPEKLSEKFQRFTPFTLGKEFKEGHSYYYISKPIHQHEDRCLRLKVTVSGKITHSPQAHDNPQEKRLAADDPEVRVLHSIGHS

B1: SC11.51 (antibody, V domains shown)
VH: EVQLQQSGPELVKPGASVKISCKASGYTFTDYYMNWVKQTHGKSLEWIGDITPNSGGPTYNQNFKGKATLTVDRSSTTAFMELRSLTSDDSAVYYCVRSAYYYGTNYDFDYWGQGTTLTVSS
VL: QIVLTQSPAIMSASPGEKVTMTCSASSSVTYMYWYQQKPGSSPKPWIYRTSNLASGVPTRFSGSGSGTSYSLTISSVEAEDTATYYCQQYSDYPLTFGAGTKLELK
notes: Murine monoclonal antibody from a hybridoma; also called EFNA3 modulator SC11.51
On to B1, for which the Kd (as a rule, the constant that tells how readily two partners part at equilibrium) in assay [1] was determined as 1 nM.

B2: SC11.34 (antibody, V domains shown)
VH: DVHLQETGPGLVKPSQSLSVTCTVTGYSITSDYAWNWIRQFPGNKLEWMGYISYSGGTRYNPSVKSRISITRDTSKNQFFLQLNSVTTEDTATYYCARGPYAGYPAWFDYWGPGTLVTVSA
VL: ENVLTQSPAIMSASLGEKVTMSCRANSSINYMYWYQQKSDASPKLWIYYTSNLAPGVPARFSGSGSGNSYSLTISSMEGEDAATYYCQQFTSSPWTFGGGTKLEIK
notes: Murine monoclonal antibody from a hybridoma; also called EFNA3 modulator SC11.34
For B2, the Kd in assay [1] is 2 nM. In addition, the binding result in the assay with mouse EFNA3 is listed as “no binding”.

B3: SC9.20 (antibody, V domains shown)
VH: DVQLQESGPGLVKPSQSLSLTCSVTGYSITSGYYWNWIRQFPGNRLEWMAYISYDGSNDYNPSLKNRISITRDTSKNQFFLKLNSVTTEDTATYYCARGYPILFAYWGQGTLVTVSA
VL: DIKMTQSPSSMNASLGERVSITCKTSQDINSYLSWLQQKPGKSPKTLIYRANRLVDGVPSRFSGSGSGQDYSLTISSLEYEDMGIYYCLQYDEFPLTFGIGTKLELK
As to B3, the Kd in assay [2] stood at 0.5 nM.

B4: SC11.32 (antibody, V domains shown)
VH: QVQLQQPGAEIVRPGASVKLSCKASGYTFTAYWMHWVKQRPGQGPEWIGAIDPSDSYTYYNQKFKGKATLTVDTSSNSAYMQLSSLTSEDSAVYFCARWDYYDGNWGQGTTLTVSS
VL: DVVMTQTPLSLPVSLGDQASISCRSSQSLVHSDGNTYLHWYLQKPGQSPKLLIYRVSNRFSGVPDRFSGSGSGTDFTLKISRVEAEDLGVYFCSQSTHVPYTFGGGTKLEIK
notes: Murine monoclonal antibody from a hybridoma; also called EFNA3 modulator SC11.32
Take B4: the Kd in assay [1] worked out at 0.2 nM.
